What was measured:
human blood macrophages = assay: OSM-induced TNFα secretion by blood macrophages (ELISA); assay type: cell-based; conditions: co-incubated 8 hr with OSM, n=3 donors
Description: (§1) Lyophilised, recombinant human oncostatin M (rhOSM) was purchased from R&D Systems diluted to 10 μg/ml in sterile PBS+0.1% BSA (Sigma) and aliquots stored at −20° C. until use. rhOSM, E. coli-derived LPS or CM were added to triplicate wells of macrophages, monocytes or Thp-1 cells, prepared as above and incubated for 7 hours at 37° C., 5% CO2. Supernatants were harvested and frozen at −20° C. until testing for TNFα protein by ELISA. In assays designed to co-assay for TNFα mRNA, cells were incubated as above for 4 hrs, washed once in PBS and lysed in RNA extraction buffer (RNAzole).
Importantly, TNFα induction was not due to contaminating endotoxin as pre-boiling of OSM completely ablated TNFα secretion (data not shown). Also, removal of OSM by immunoprecipitation using specific antibody abolished activity (data not shown). These findings were extended to include human blood monocytes, pre-activated with interferon-γ and human blood macrophages, differentiated in culture for 7 days. Both cell types, when co-incubated for 8 hr with OSM, secreted TNFα, as measured by ELISA. Mean TNFα secretion by monocytes was 1447 pg/ml (range 137-4709 pg/ml; n=4 donors) and 542 pg/ml by macrophages (range 62-1428 pg/ml; n=3 donors).

human blood monocytes = assay: OSM-induced TNFα secretion by interferon-γ pre-activated blood monocytes (ELISA); assay type: cell-based; conditions: co-incubated 8 hr with OSM, n=4 donors
Description: Human buffy coats (North London Blood Transfusion Centre) were diluted 1:3 with PBS, layered onto Lymphoprep (Nycomed UK) and centrifuged at 600×g for 30 minutes at room temperature. Harvested PBMC were washed 3 times in PBS, counted, and resuspended in 80 mls RPMI 1640/10% FCS at 5×10^6 cells/ml. 20 mls were put into each of four 175 cm^2 flasks and Incubated overnight at 37° C. to allow monocytes to adhere. Non-adherent cells were discarded and adherent cells scraped off after incubation with ice-cold versene at 4° C. for 15 minutes. Cells were washed twice in PBS, resuspended in RPMI 1640+10% heat inactivated human serum (Sigma) at 6.9×10^5/ml and 250 ul cell suspension placed into each well of 96-well flat bottomed plate (Costar). To half the plate was added 100 IU/ml IFNγ (Genzyme), the other half left as control. Plates were incubated overnight at 37° C., 5% CO2 prior to assay. […]
Importantly, TNFα induction was not due to contaminating endotoxin as pre-boiling of OSM completely ablated TNFα secretion (data not shown). […] Both cell types, when co-incubated for 8 hr with OSM, secreted TNFα, as measured by ELISA. […]

THP-1 cells = assay: OSM-induced TNFα production by PMA-differentiated THP-1 cells (ELISA, RT-PCR); assay type: cell-based, human
Description: Human pro-monocytic line THP-1 cells (ECACC) were passaged twice weekly in RPMI supplemented with 10% heat-inactivated FCS, 10 mM hepes, 1% non-essential amino acids (all from Sigma), 4 mM L-glutamine (Hyclone), 100 U/ml penicillin+100 μg/ml streptomycin (Hyclone) (complete medium, CM) and then PMA (Sigma) was added to washed cells at 1 ug/ml and Incubated at 37° C. for 30 minutes. Cells were washed ×3 in pre-warmed PBS, resuspended in CM and plated out at 1.5×10^5 cells/ml in 96-well flat bottomed plates (Costar). Plates were incubated for 48 hours at 37° C., 5% CO2, then washed with PBS, the media replaced, and incubated for a further 24 hours. Cells were washed ×1 in PBS before use.
as §1
RNA was detected as follows. Total RNA was prepared according to the manufacturer's instructions and stored at −80° C. in DEPC-treated water. For RT-PCR, approximately 1 ug of RNA was reverse transcribed using oligo dT priming (first strand cDNA synthesis kit, Pharmacia Biotech) and the resulting cDNA subjected to 30 cycles of PCR using the following primers for TNFα (Clontech amplimers): forward—[…], (SEQ ID 1) reverse-[…] CCAGAC (SEQ ID 2). The amplified product (444 bp) was separated by agarose gel (2%) electrophoresis and visualized by ethidium bromide staining.
The human pro-monocytic line THP-1, was induced to differentiate using PMA, washed thoroughly, and incubated with recombinant human OSM as described above. Culture supernatants were removed at 8 hours and assayed for TNFα production by specific ELISA (TNF Quantikine, R&D Systems) in accordance with manufacturers instructions. OSM induced a dose-related release of TNFα, measurable above 1 ng/ml OSM and maximal at 200-500 ng/ml, routinely reaching secreted levels of greater than 2500 pg/ml TNFα.

Bovine nasal cartilage = assay: Cartilage degradation assay (hydroxyproline/collagen release, MMP1)
Description: Bovine nasal septum cartilage was held at 4° C. overnight after slaughter. 2 mm diameter discs were cut from 2 mm slices and washed twice in HBSS. Three discs per well of a 24 well plate (Costar) were incubated at 37° C., 5% CO2 for 24 hrs in a 600 μl volume of DMEM (Sigma) containing 25 mM HEPES supplemented with 2 mM glutamine, 100 μg/ml streptomycin, 100 U/ml penicillin and 2.5 μg/ml amphotericin B (cartilage degradation medium, CDM). Cartilage was cultured in quadruplicate wells in either: 600 μl of CDM alone, 2, 10 or 50 ng/ml human recombinant TNFα alone, 10 ng/ml rhOSM alone (R&D systems) or TNFα+OSM and incubated for 7 days at 37° C., 5% CO2. Supernatants were harvested and replaced with fresh medium containing identical test reagents to day 1. […] The cumulative level of OH-proline released into the medium by day 14 was measured and expressed as the percentage of total released as set out below.
Hydroxyproline release was assayed (as a measure of collagen degradation) using a microtitre plate modification of the method in (Bergmann I and loxley R. (1963) Anal. Biochem. 35 1961-1965. Chloramine T (7%) w/v) was diluted 1:4 in acetate citrate buffer (57 g sodium acetate, 37.5 g tri-sodium citrate, 5.5 g citrate acid, 385 ml propan-2-ol per liter water). […] The plate was heated to 65° C. for 35 min, cooled and the absorbance at 560 nm determined. […]

B1: OSM: recombinant human oncostatin M purchased from R&D Systems (protein)
chain: AAIGSCSKEYRVLLGQLQKQTDLMQDTSRLLDPYIRIQGLDVPKLREHCRERPGAFPSEETLRGLGRRGFLQTLNATLGCVLHRLADLEQRLPKAQDLERSGLNIEDLEKLQMARPNILGLRNNIYCMAQLLDNSDTAEPTKAGRGASQPPTPTPASDAFQRKLEGCRFLHGYHRFMHSVGRVFSKWGESPNRSRRHSPHQALRKGVRRTRPSRKGKRLMTRGQLPR
Mean TNFα secretion by macrophages (human blood macrophages): 542 pg/mL
Mean TNFα secretion by monocytes (human blood monocytes): 1447 pg/mL
Expression of TNFα message (RT-PCR) (THP-1 cells; 4 hr with 100 ng/ml OSM, relative to unstimulated control cells): strongly increased
OSM concentration above which TNFα release is measurable (THP-1 cells; 8 hours): above 1 ng/ml
OSM concentration at which TNFα release is maximal (THP-1 cells; 8 hours): 200 to 500 ng/mL
secreted levels of TNFα (THP-1 cells; PMA-differentiated THP-1, supernatants at 8 hours, at maximal OSM): greater than 2500 pg/ml
collagen release (Bovine nasal cartilage; OSM alone at 10 ng/ml, day 14): did not induce collagen release
MMP1 secretion (total collagenase activity) (Bovine nasal cartilage; day 7, OSM 10 ng/ml, TNFα 50 ng/ml): neither OSM nor TNFα alone, used at 10 ng/ml or 50 ng/ml, respectively, induced significant MMP1 secretion

— patent US7291332B2, “Inflammatory mediator antagonists” (SmithKline Beecham Corporation, priority 1998, dated 2007)
